Assay results from a protein production outcome set (Wang et al. 2014).

assay: label from the status in PepcDB records

Protein production, not failed:
MGCGFSRQHVVKTNVSSFDRELLDLKIQRDSLQQYEQRLSDSLKNYIKLARRLVAENQRQQALVVLQVKHALQKSIEKAQNMRFNLEQVLSEIELKQIETDYVLKLRTGTKLLQSIQKTLSIEEIEHLLEETKEAIEFQNKVTEVLGSFSLMEIDESCEEELEQLETAMFPPVPKRLEKTMTPQVTENMQVKSETAKEYSKQESILLPS
MGDRVNLEGIVIDIEQTNDQLSFNVTDENESVPVVYDGPMPETMSVGRTVVAKGYYNGSVVEAESLSIRAHEGLEHHHHHH
MGEAATKSDRQQNQTRLWLNILRLHGLVFGDLNRQLLDETGLSLAKFDAMAQLARNPDGLSMGKLSGALKVTNGNVSGLVNRLIKDGMVVKAMSADDRRSFSAKLTDAGLTTFKQASEAHNRILAELLRAVSDQDMVEASAALRGILESMQTGASLD
MGEKVSIILTSYNKPDYLQKAIESVIQQTHDLWELFIMDDHSNAETTAVIHKYLHDRRIQYHNSFVHPADRLKTARYATLINSALPFADGDYISYLTDDTVYHPERLSRMVQEFSHKPEAQAVYSKQKVVHVNERGEEISHFYRNANAVLDQAAFQVDHCSVMHRRSLLNLIHHKFGGYWDDDMKHWNHGDAIFWARLNNFTPFLPINEVLDTTYKTPDSFQNAYRFLPADLIDGSFVKGSDQNVYFFDQGVRHPVGEKWGFLYLNRTVAVPDPYLFQYRIGKILNIPNYILVKEADHPAIFYIEAGKKRRIVDQYAFQFYQFQRKDIVTIGKEEMETLPEGPPITWKRSELIKNPPGRRLFFIEREPFLFLNGVFHPISEQVTRKFFLHQKPISASFRNIQQFPIGKPFYPVYDEIIKKLNIATELEHHHHHH
MGEPFGGPLMGRLVSLLPSATDLIFELGLGEQLLGVSHCCDHPGAASLPVLTRSIIGSDLPQAEIDRAVSEAVRAGRALYTVDGPLLDRLRPDLVVTQGVCEVCAVTPGTVAEAVRFLPGCLPAEQVLSLEGKTFAGILADLRALARAAGVRERGEALAAESERRWNAIRPVGVQVPEPPRVLTLEWVDPPFYGGHWVPEQVAQAGGKDVLGHAGRDSGRTSWEDVVQLDPDVIVVMCCGYGLSDNAEFARQVLSHPELRAVRAGQVWGVDANAHFSRPSLGVVRGAEVLAALLRGEESAGESVRVRAELEHHHHHH
MGFHLRGNNDFAFKRLYINLPQNSQMRAQLRRLIDNGSDTVVVSDKQDADAFLDVLSENRVKTISSLTPQGVVREYRITYRFSFQLRDAHDNLLIPPSEITLFRDLSYNETQVLAKDYEEAALYRDMQGDIVNQLVRRLASVRLPSLEHHHHHH
MGFNVKTPLLATDVIIRLWDGENFKGIVLIERKYPPVGLALPGGFVEVGERVEEAAAREMREETGLEVRLHKLMGVYSDPERDPRAHVVSVVWIGDAQGEPKAGSDAKKVKVYRLEEIPLDKLVFDHKKIILDFLKGNY

Protein production, failed:
MFVHLSVELMQHLSAAALAFTVVTYVVLDGTDLGVGMLFAANRSDADRHLMAYSILPVWDGNETWLVLGGGSLLAMFPSAYAIFLNATYVPLVVMLLALICRGVALEYRDQLGTDRRRRVLDVVFMVASLLATFCQGVVAGTYLAGVAHRAGQYAGNGREWLQPFPLFCGVALVVGYLLLGACWLVWRSEGQLQQRARHQARVLGIVLGALLTLGVVWLARLTPIYAQRLGDAHISVPLGTSVLGLMVAMYLLMRSRHAFLPLFAVLGVVVATYAGVLAIVYPMVLPPDITLAQAASPPASQGVMLLAFAVLVPCTLAYSSYGFYVFRGKVKPRGHAAE
MFVNSNGYNLGVREDEVVVNDVDLPPWAKKPEDFVRINRMALESEFVSCQLHQWIDLIFGYKQRGPEAVRALNVFHYLTYEGSVNLDSITDPVLREIPEAYFIRDPHTFLLTKDFIKAMEAQIQNFGQTPSQLLIEPHPPRSSAMHLCFLPQSPLMFKDQMQQDVIMVLKFPSNSPVTHVAANTLPHLTIPAVVTVTCSRLFAVNRWHNTVGLRGAPGYSLDQAHHLPIEMDPLIANNSGVNKRQITDLVDQSIQINAHCFVVTADNRYILICGFWDKSFRVYSTETGKLTQIVFGHWDVVTCLARSESYIGGDCYIVSGSRDATLLLWYWSGRHHIIGDNPNSSDYPAPRAVLTGHDHEVVCVSVCAELGLVISGAKEGPCLVHTITGDLLRALEGPENCLFPRLISVSSEGHCIIYYERGRFSNFSINGKLLAQMEINDSTRAILLSSDGQNLVTGGDNGVVEVWQACDFKQLYIYPGCDAGIRAMDLSHDQRTLITGMASGSIVAFNIDFNRWHYEHQNRY
MFVTLQTVQESEKEILRNLYALYLHDLSTFTSNITIGANGFFEYEDLHMFWVNDGITPYFIKSDNEIVGFLLLLERPFLKKENDFGINDIFILNQYKGKGIGKQVIESLLKEKRGQYFVIELVKNVPAVSFWKKVYRELNIEFDEKIQLIDDEECLVQTFEI
MFYFMTLSFIIMPALGCFLIGLVLAKSDRWTFSWILSLIGLVAFISSFWHIERADLWFMLSYSFGPFLMGFGFTWDLSNKRRMQLLLLGLFFLIFFMILYYLIVRILNTAVV
MFYILNNVLKNIKTLDNVKSKFFLKDSFLKNKLKANNLDDNLSSHIFFNEIFVSLRDDEKKEEHKKVLLFNKVRNDKKHRKRAFQKRGYWKKMHYFIRKNNMMSYAFKVQNIDYEKIKKLKRGEVYSN
MGAVTDDEVIRKRLLIDGDGAGDDRRINLLVKSFIKWCNSGSQEEGYSQYQRMLSTLSQCEFSMGKTLLVYDMNLREMENYEKIYKEIECSIAGAHEKIAECKKQILQAKRIRKNRQEYDALAKVIQHHPDRHETLKELEALGKELEHLSHIKESVEDKLELRRKQFHVLLSTIHELQQTLENDEKLSEVEEAQEASMETDPKP
MGCVRDLTQRGMRQGAKPVRYFGERTDVSDLLAHTLQTVADILGPHGPATKAAEHSYTPNDYSIHFFLQLAVILLACRVTGWFGKKFLAQPQVVGEMIAGVVLGPSLLGLLFPDFQLSLFPKETRNILYVGAQLGVGLYMFLVGASFQAGHFKTKARSAMSVSFAGIAAPFAIAVIITPFLLKVPGLFAPTITPGAATLFMGACIALTAFPMLARIINERGLQKTSLGTLSLTAGAFDDAVSWCVLAVVLAMFGGGPGVAVLAIGGGLLWVLFVLTLGPKILAPLGRMVEREGELSAHALALVILAFCVSAFLMDAVGIHAIFGGFIMGVVMPRGLLTQELKKKVEPLVVVLLLPMFFTYSGLNTRLDMVNSLDLLLIALGILACSILAKWGACYVAARATGEDHATAMGIGALMNSRGLMELIIINIGLQKGIIGPTLFAMLVLMAIVTTMMASPLFEIVYGKKARERGELDAVPDAKRA
MGCYHPLSGTDGTLMRHTLPIAPQFYVTAPQPCPYLAGRMERKLFTALQGEGAERLNNALSQQGFRRSQNVLYRPSCADCAACLSARIDVSAFRASRSQKRAMRRNAHLTRRATSPWATDEQYELFRRYLDSRHADGGMADMDVFEFAAMIEETPIRSRVIEYAHRDTRALIGVSLTDVLDDGLSMVYSFYDPDLHRDSLGTHMILDHIAIAREAGLPYVYLGYWVPGSPKMGYKSRFSGLEIYLGGRWQAMTDPEAHDAIRHPLSTDPIAEQVANIQLPDRWPTGD
MGCYHPLSGTDGTLMRHTLPIAPQFYVTAPQPCPYLAGRMERKLFTALQGEGAERLNNALSQQGFRRSQNVLYRPSCADCAACLSARIDVSAFRASRSQKRAMRRNAHLTRRATSPWATDEQYELFRRYLDSRHADGGMADMDVFEFAAMIEETPIRSRVIEYAHRDTRALIGVSLTDVLDDGLSMVYSFYDPDLHRDSLGTHMILDHIAIAREAGLPYVYLGYWVPGSPKMGYKSRFSGLEIYLGGRWQAMTDPEAHDAIRHPLSTDPIAEQVANIQLPDRWPTGDLEHHHHHH
MGDPFLIGGVIIACFVAFNIGGATTGPAFGPAVGANVLSKTTAGALMAVAFFGGAYTIGRRVVDTLGTELVHDPSVFTLEASIIVLFFIGGALLVGNLSGAPASTSMTAVGAIIGLGLASGELNFAVVGEILAWWILSPIIGFWLAVMVGRYGYEALDRRVAIEQSDGPLLAFERVELGRWPVVRLRESPVVRMERISPKLWPALGPNTSWREAVGTAVLVSIGFLMAFSSGTSNIANAIAPLVGSGALAMNPGILIGCGAVAVGALTIARRTMETLGNDITDLPLTAAIVVALLSSLIIIALSALGIPASFVVVATLCIIGLGWGRSTQAVSVAEAVRGDVSPQVSVGALARGDDATVGTVRSQSAPQGASRRTAPVRSDLFDPGTSVRVVLMQNVVPLLATGGSYLTFWLLPVGG
MGEAAKDQTEEVIQAWYLDNKEEDQKLPHHKDPKEFVSLDKLAELGVLCWRLDADNYETDEELKRIRESRGYSYMDLCEVCPEKLPNYEEKVKMFFEEHLHIDEEIRYCLAGSGYFDVRDLNDIWIRVWVKKGGLIVFPAGIYHRFTVDSDNYMKAMRLFVGGPVWTAYNRPHDHLPARKAYMKKFLKVIGDRNIDASA
MGEIRNYIKLILIGVAILVTVTMIISATGCDILPPPASAIKPPQYINASSGEVEDPKAIARRFLTPGTYFSYPTHPRNADAVWEVDIDGDGRAELLTLYRGRDLKNNGVEVFGVFILKQDENHEWQIFWEQQYTANIVALDWADVRDITGDNYPELLIGWNIGYRIGSNLDIYSLKEEDKPRLISSIKYSEIVGIEDRRGINNEIKPVLMMYLFDEEMYESENEGRKDEYFHILQWDYKEWMGGGLVEADDFYASYYVNVIEDLKESLERYSNNYYQWYILALAQLRSGKPMDALESVGKVLEITQRYINRHGERTVKEVFKYQKKARILKAAAYIKMGKYHESIIESNYVLGNYDIDDKELAQIYLNLGYAYAGLKQYEMAGTYFNKSCETAETVYKEGTALYLLNSYKAKKQLEYIKPFLTSSH
MGEKPGTRVFKKSSPNCKLTVYLGKRDFVDHLDKVDPVDGVVLVDPDYLKDRKVFVTLTCAFRYGREDLDVLGLSFRKDLFIATYQAFPPVPNPPRPPTRLQDRLLRKLGQHAHPFFFTIPQNLPCSVTLQPGPEDTGKACGVDFEIRAFCAKSLEEKSHKRNSVRLVIRKVQFAPEKPGP
MGEMENIIYSIYHPTILVGFAIGILSLLAIGFQKNDLHALILTDVVECAMLIIIAGVGTDLAEALILPGLVVSLAELLAVSEVLITRKYLKSKRPKPKSYKLFEEFKLPLYTGELKYDIHMEILKTSPKFLAIILIVYGAILSGFTGGAVIATGLLFYALSQRVIGVEISEELKTMWEGISGLSGIAWALWIFGFIGFFVFPDKWLLCLLMAGLGLVIKVGSKLGLIGYIGEVR
MGFDFGTVLVFAVVAVGFALGGIAASRALGPKWPNPEKASIYECGERPVGVAWFNFNPRFYLVALVFLVFEVDIALTFPVVAVFKGWVAQGPGMAWVAFFELLVFTGILVVGLAWAWAHGDLEWIKTLGAPSEEAPARAEPRRAA
MGFFDSGIGGMTVLYEAIKVLPYEDYIFYADTLNVPYGEKSKGKVKEYIFNAAEFLASQNIKALVIACNTATSIAIEDLRRNFDFPIIGIEPAVKPAINKCTEERKRVLVVATNLTLKEEKFHNLVKEIDHHDLVDCLALPGLVEFAENFDFSEDKIIKYLKNELSSFDLKQYGTIVLGCTHFPFFKNSFEKLFGIKVDMISGSVGTAKQLKKVLADRNQLGKGSGSITFFNSGHKIVDQEVISKYKRLFEILDETQRSHVGH
MGFLVPSEITVSEFLLDFLNKYSENISLATYNNYVSICKNYINPSIGKYKIQDLHPVHIQNYIDKLSYKLNPQSIKIHINILKLAIKRAYRLKLIKENVMDSIKAPLEHHHHHH
